Laboratory results published in paper PMC11576661, “Biocatalytic sulfation of aromatic and aliphatic alcohols catalyzed by arylsulfate sulfotransferases” (Applied Microbiology and Biotechnology, 2024).

Columns and labels:
Assay in all cases: purified protein
Conditions in all cases: apparent, sulfate donor, acceptor phenol 100 mM, Tris/HCl 50 mM pH 8.0, 30 °C
purified protein [1] = substrate: O=[N+]([O-])c1ccc(OS(=O)(=O)O)cc1; assay type: biochemical, Dehalobacterium formicoaceticum
purified protein [2] = substrate: O=[N+]([O-])c1ccc(OS(=O)(=O)O)cc1; assay type: biochemical, Desulfitobacterium hafniense
purified protein [3] = substrate: O=[N+]([O-])c1ccc(OS(=O)(=O)O)cc1; assay type: biochemical, Hungatella effluvii
purified protein [4] = substrate: O=[N+]([O-])c1ccc(OS(=O)(=O)O)cc1; assay type: biochemical, Desulfosporosinus orientis
purified protein [5] = substrate: O=[N+]([O-])c1ccc(OS(=O)(=O)O)cc1; assay type: biochemical, Desulfitobacterium dehalogenans

B1: ASSTDfor (Dehalobacterium formicoaceticum) (protein)
chain: MNAIKSEQVPHIIHQQEKLEKAFLAEFAAGGYTLYNPLVKINPYGICPLTAMVLFETPVATEATVVVRGKEHLGDIRHTFPAGKKHILPIYGLYADYENKIELIMANGQKNTIKIQTEPLHTDVPVATSIKTTPEYMGNNLMFLTAAMRSMPVGYDYAGDIRWYATKNFAFDLKRLPNGHILVGTERLVKMPYFTTGLYEMAFSGKIFKEYVLPSGYHHDQFPMEDGNILVLTFDFYSGTVEDMCVLLDAKTGEVLKSWDYKKVLPQDVAGSGSQDEHDWFHNNAVWYDKKTNSLSLSGRHQDAVINIDYETGELNWIIGDPEGWPKEMVDKYFFTPVGDGDFDWQYEQHACVVLPDGDIMLFDNGHFRAKNKENYWPNSKNFSRGVRYRIDTEKMTIKQVWQYGKERGAEFFSPYICNVEYYNEGHYLVHSGGIGYENGKPCEGMAVMKTMQPEFKDNVYTFNSITCELKDDVLMYELQVPANCYRAEKLPLYYANETAELGAGEILGNLIKTEETKMKIKAEETGALVPDHFQASITEEEDRFLFNAIFDAGEMAQLLLVNEAGEIKRYPINTVPQAFQAMCVGTFQKADPRNIDTFINKIGLSGNYQVKLVAEEKVYETGVTIKA
notes: recombinant from E. coli BL21(DE3), C-terminal His-tag, IMAC purified, about 70-76 kDa
Work on B1 yielded a Km (purified protein [1]) of 500 µM, a Vmax (purified protein [1]) of 5.3 µmol/min/mg and a kcat (purified protein [1]) of 6.3 s⁻¹. The kcat/Km (purified protein [1]) was 12600 M⁻¹ s⁻¹.

B2: ASSTC (Desulfitobacterium hafniense) (protein)
chain: MVDYEYCPHIITKQNELEKAFMEKFEAGNYSLENPLVILNPYGVAPLTAMILFNTPIACEAKIIVKGKEHPGDIQHTFPAATRHILPVYGLYGGYKNTIKIILSTSSSNTITIQTEPLPKSVAIPSSIKTTSEYMGNNLMFLSPSMASLTVGYDYAGDVRWYCSLNVCFDLKRMPNGHLLIGTGRLVKVPYYTSGLYEMAFSGKIFKEFILPGGYHHDQFVMEDGNLLVLTQDFYADTVEDVCVLIDPHSGDILKKWDFKNILPQDVAGSGTQTAHDWFHNNAVWYDNRTNSLTLSGRHQDVIINIDYETGGLNWMIGDPEGWPQELVDKYFFTPAGDGEFDWQYEQHGCVVLPDGDIMVFDNGHYRSKNKENYRLNKDNFSRGVRYRIDTERMTIQQIWQYGKERGADFFSPFICNVEYYDEGHYMVHSGGIGYENGKPCEGLAVGKSKNPKFKDNVYTLNSITCELVNDELVYELQVPANFYRAEKLPIYYANEVAELCEGQRLGQFVETQTTRMKIKALETKEPIPEHYQAKIVEEEDRFCLNAIYESGETAQLLLVSESDEILRYPINTVAQAYGAMCVGTFQKSDPRNVDTFVTKTGLSGKYQVKLVAEDKIYETGVTISA
notes: as for B1
B2 was tested, and the Km (purified protein [2]) was 200 µM, the Vmax (purified protein [2]) was 0.6 µmol/min/mg and the kcat (purified protein [2]) was 0.7 s⁻¹. The kcat/Km (purified protein [2]) was 3600 M⁻¹ s⁻¹.

B3: ASSTHeff (Hungatella effluvii) (protein)
chain: MIRYEKKNSLITQQAEAEQKFLETFEAGAYTASSPLVVRNPYLISPLSAMILFKTAVKQEVTLTVKGKEPEGDISHTFPADTIHILPVYGLYADCENTVELILSGGERETVMIKTEPLPPEVPVPTFCKGSGAHMGDNVIFLTQTSKADALACDYRGDVRWYLTVNVCFDMKRLANGHLLVGTDRLIKLPYYVSGVYEMGVHGKIYREYRLPGGYHHDTFEMEDGNILMLSQIPDRDTVEDVLVLVNRQTGAIVRTWDYREILPYDCQTTWSGSASAHDWFHNNAVWYDKKTDSITLSGRHQDAVINIDFKTGALNWILGDPEGWPEEYVEKYFFRPISEPFEWSYEQHGVVVCPDGDIMMFDNGHYRSKLKAHYSKAKDSYSRGVRYHIDREARTIEQVWQYGKERGADFFSPYICNVEYYDEGRYMVHSGGIAYKDGEPLEGLGSMDGTGEGCTLNAITCELVNDEVVYELHVPSNVFRAEKLPMYYAGETAELGAGKTLGSMSRTGEFETEIPAVCTGDLIPEHYEASVTEEEDRILFNATFEKGELAMLLLEEEDGKAHRYYINTSAAKNFEAMCVGTFLKNDPRNVDVYVNKCGMSKNVKVRVLLEDKIYETGVEIRME
notes: as for B1
Work on B3 yielded a Km (purified protein [3]) of 2100 µM, a Vmax (purified protein [3]) of 39.8 µmol/min/mg and a kcat (purified protein [3]) of 46.9 s⁻¹. For the same protein, the kcat/Km (purified protein [3]) was 22300 M⁻¹ s⁻¹.

B4: ASSTDor (Desulfosporosinus orientis DSM 765) (protein)
chain: MSVKFKSFDHIITEQYQAEQAFLTEYQKGEYSFNNPYVKLNPYIIAPLTALVMFKTAQPTTVTITVKGKDKNGDICFNFPTAIEHLIPVYGLYANYANKVELALGDGKTNVITIQTEAAPEIVKLPTQINTTADYFEDNIMFVSPTSTAATAGYDYNGDVRWYGSLNFAFDIKRAKNGRLLLGTHRLVTPPYHTTGLYEMGMIGKIYKEYRLPSGYHHDQFEMEDGNLLILSQDLPRGTVEDMCVLVDRKTGQIIKSWDYQKVLPTNAGGSGSQDSHDWFHNNAVWYDKKTNSLTLSGRHQDIIINLDFETGALNWIIGDPEGWPKELVDNYFFKPVGKGEFDWQYEQHACVVCPNGDIMAFDNGHWRSKIKENYVTANDNFSRGVRYRIDTKKMEIEQVWQYGKERGAEFFSTYICNVEYYDEGHYLIHSGGIGSIDGEALNKPPVQFRGEDEKKVVFNSITVELKDDVMMYEMQLPANYYRAEKLKLYAAEDVLTLGKGELLGTLGVTEEFTTIPPAEEGGMVPEKYNVKLGLEEDRLIFKATFEKGQMVLLQLEGETTHSYFVPTTKRPFLAMCVGTFQESDDRAVEFPVSREGLAGGFRVSLIVDAYKYETGVTIKL
notes: as for B1
For B4, the Km (purified protein [4]) was 1000 µM, the Vmax (purified protein [4]) was 0.5 µmol/min/mg and the kcat (purified protein [4]) was 0.6 s⁻¹. It also gave a kcat/Km (purified protein [4]) of 600 M⁻¹ s⁻¹.

B5: ASSTDdeh (Desulfitobacterium dehalogenans ATCC 51507) (protein)
chain: MMNPIKSEQIPHIIHRQKDFEEAFLAEFSAGHYTLANPLVELNPYEICPLTAMILFETPVSTEATIIVRGKEHPGDIRHTFPANKKHILPIYGLYADYENKVEIVLANGQRNTVTIKTGPLHPDVPVATSIKTTSEYMGNNLMFLTAAMKAMPVGYDYAGEVRWYATRNFAFDLKRIPNGHILIGTERLVKMPYFTTGLYEMAFSGKIFKEYRLPSGYHHDQFVMEDGNILVLTFDFYSGTVEDMCVLLDAETGEILKSWDYKKVLPQDVAGSGSQDAHDWFHNNAVWYDRKTNSLSLSGRHQDAVINIDYETGELNWIIGDPEGWPQDMVDQYFFTPVGEGEFDWQYEQHACVVLPDGDIMLFDNGHFRAKNKENYLPNSQNFSRGVRYRIDTEKMTIEQVWQYGKERGAEFFSPYICNVEYYDEGHYLVHSGGIGYENGETCEGMAVMKVLQPEFKDNVYTFNSITCELKDDVLMYELQVPANCYRAEKLPLYYAYETAELGEGKILGNLVETQETKMKIKAVETGERVPDHYEASITEEEDRILLNAIFDAGELAQLLLVDGDGGVKRYPISTVPQAFQAMCVGTFQKADPRNIDVYINKTGLSGKYQVKLIAEEKLYETGVSITA
notes: as for B1
In the case of B5, the Km (purified protein [5]) is reported as 400 µM, the Vmax (purified protein [5]) is reported as 21.2 µmol/min/mg and the kcat (purified protein [5]) is reported as 25.3 s⁻¹. It also gave a kcat/Km (purified protein [5]) of 63200 M⁻¹ s⁻¹.
